In patent US20140017235A1 (published 2014):

Biological target: T1, human NGF (human, UniProt P01138 122-241)
T1 construct: also called hNGF; nerve growth factor
Assay: BIAcore SPR screening, Fab over immobilized human NGF
Protocol: Affinities of anti-NGF Fabs and monoclonal antibodies were determined using the BIAcore3000™ surface plasmon resonance (SPR) system (BIAcore, INC, Piscaway N.J.). CM5 chips were activated with N-ethyl-N′-(3-dimethylaminopropyl)-carbodiinide hydrochloride (EDC) and N-hydroxysuccinimide (NHS) according to the supplier's instructions. Human NGF was diluted into 10 mM sodium acetate pH 4.0 and injected over the activated chip at a concentration of 0.005 mg/mL. Using variable flow time across the individual chip channels, two ranges of antigen density were achieved: 100-200 response units (RU) for detailed kinetic studies and 500-600 RU for screening assays. The chip was blocked with ethanolamine. […] HBS-EP buffer (0.01M HEPES, pH 7.4, 0.15 NaCl, 3 mM EDTA, 0.005% Surfactant […]) was used as running buffer for all the BIAcore assays.

T1 sequence (P01138 122-241 limits assumed): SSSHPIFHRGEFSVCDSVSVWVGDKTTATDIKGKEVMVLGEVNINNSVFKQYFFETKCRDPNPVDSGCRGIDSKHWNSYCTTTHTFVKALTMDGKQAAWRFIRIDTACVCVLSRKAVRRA

koff: 0.0001 s⁻¹
B1: H19-L129 (Fab, V domains shown)
VH: QVQLQESGPGLVKPSETLSLTCTVSGFSLIGYDLNWIRQPPGKGLEWIGIIWGDGTTDYNSAVKSRVTISKDTSKNQFSLKLSSVTAADTAVYYCARGGYYYGTSYYFDYWGQGTLVTVS
VL: DIQMTQSPSSLSASVGDRVTITCRASQSISNNLNWYQQKPGKAPKLLIYYTSRFHSGVPSRFSGSGSGTDFTFTISSLQPEDIATYYCQQSKTLPYTFGQGTKLEIKR
notes: E. coli Fab with human Ckappa and human IgG2a CH1; also called H19-L129 Fab; Fab H19-L129
